Reference: the supplement of paper PMC7877785
± gives the uncertainty stated by the source.

Assay: self-splicing fitness, log relative to wild type (ln ratio); higher = more splicing; Tetrahymena group I intron in knt gene, E. coli kanamycin selection, DiMSum; sequences stand for … in CUCUCU…GGAGGGAAAAGUUAUCAGGCAUGCACCUGGUAGCUAGUCUUUAAACCAAUAGAUUGCAUCGGUUUAAAAGGCAAGACCGUCAAAUUGCGGGAAAGGGGUCAACAGCCGUUCAGUACCAAGUCUCAGGGGAAACUUUGAGAUGGCCUUGCAAAGGGUAUGGUAAUAAGCUGACGGACAUGGUCCUAACCACGCAGCCAAGUCCUAAGUCAACAGAUCUUCUGUUGAUAUGGAUGCAGUUCACAGACUAAAUGUCGGUCGGGGAAGAUGUAUUCUUCUCAUAAGAUAUAGUCGGACCUCUCCUUAAUGGGAGCUAGCGGAUGAAGUGAUGCAACACUGGAGCCGCUGGGAACUAAUUUGUAUGCGAAAGUAUAUUGAUUAGUUUUGGAGUACUCGUGGUCG
Procedure, shortened: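 The eight P1ex-region nucleotides of an intron in the knt kanamycin-resistance gene on pET-22b(+) were all randomised and the library put into E. coli BL21(DE3). Six replicate transformations were grown overnight at 37°C or 30°C on LB agar with or without 25 μg/mL kanamycin, together with 100 μg/mL carbenicillin, 50 μM IPTG and 0.2% rhamnose. Colonies were pooled and amplicon-sequenced on an Illumina HiSeq 2500. Fitness from DiMSum is the error-weighted combination of wild-type-normalised replicate fold changes, kanamycin over none.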

| Sequence | self-splicing fitness (ln) (37 °C) | self-splicing fitness (ln) (30 °C) |
| --- | --- | --- |
| CACGAGCAAUAUUACGACAA | -2.44 ± 0.28 | – |
| CACGAGCAAUAUUACGACCG | 0.125 ± 0.12 | -0.0895 ± 0.089 |
| CACGAGCAAUAUUACGCACG | -1.15 ± 0.21 | -2.13 ± 0.21 |
| CACGAGCAAUAUUACGCAGG | -2.55 ± 0.2 | -3.49 ± 0.21 |
| CACGAGCAAUAUUACGCCGA | – | -2.35 ± 0.39 |
| CACGAGCAAUAUUACGCCUG | -2.38 ± 0.17 | -3.26 ± 0.23 |
| CACGAGCAAUAUUACGCUAA | -2.75 ± 0.22 | -2.95 ± 0.34 |
| CACGAGCAAUAUUACGCUUG | -2.03 ± 0.47 | -3.27 ± 0.34 |
| CACGAGCAAUAUUACGGAUC | -2.84 ± 0.3 | – |
| CACGAGCAAUAUUACGGCUU | -3.16 ± 0.29 | -3.77 ± 0.24 |
| CACGAGCAAUAUUACGGGAA | -3.1 ± 0.29 | -2.95 ± 0.2 |
| CACGAGCAAUAUUACGGUAG | -2.18 ± 0.14 | -2.41 ± 0.12 |
| CACGAGCAAUAUUACGGUCG | -0.457 ± 0.14 | -1.72 ± 0.14 |
| CACGAGCAAUAUUACGGUGG | -2.33 ± 0.15 | -2.15 ± 0.11 |
| CACGAGCAAUAUUACGGUUC | -1.98 ± 0.34 | – |
| CACGAGCAAUAUUACGUAGU | -2.73 ± 0.26 | -3.22 ± 0.17 |
| CACGAGCAAUAUUACGUAUG | -2.79 ± 0.16 | -3.54 ± 0.14 |
| CACGAGCAAUAUUACGUGAC | -2.44 ± 0.15 | -2.72 ± 0.15 |
| CACGAGCAAUAUUACGUGCG | -2.09 ± 0.15 | -3.73 ± 0.19 |
| CACGAGCAAUAUUACGUGUC | -2.52 ± 0.14 | -3.87 ± 0.2 |

| Sequence | self-splicing fitness (ln) (37 °C) | self-splicing fitness (ln) (30 °C) |
| --- | --- | --- |
| CACGAGCAAUAUUACGUGUG | -3.21 ± 0.17 | -3.48 ± 0.13 |
| CACGAGCAAUAUUACGUUUG | -2.17 ± 0.13 | -3.57 ± 0.13 |
| CACUAGCAAUAUUACGAAGU | -3.06 ± 0.29 | -2.82 ± 0.21 |
| CACUAGCAAUAUUACGAAUA | -2.33 ± 0.18 | -3.16 ± 0.37 |
| CACUAGCAAUAUUACGACCG | 0.573 ± 0.12 | 0.413 ± 0.1 |
| CACUAGCAAUAUUACGAGCU | -2.75 ± 0.17 | -3.44 ± 0.18 |
| CACUAGCAAUAUUACGAUGU | -1.63 ± 0.19 | -4.05 ± 0.37 |
| CACUAGCAAUAUUACGCCAA | -2.89 ± 0.24 | -2.23 ± 0.16 |
| CACUAGCAAUAUUACGCUCC | -1.46 ± 0.2 | – |
| CACUAGCAAUAUUACGGAAC | -1.93 ± 0.22 | – |
| CACUAGCAAUAUUACGGAGC | -2.8 ± 0.15 | -4.52 ± 0.28 |
| CACUAGCAAUAUUACGGAGG | -0.627 ± 0.1 | -2.39 ± 0.1 |
| CACUAGCAAUAUUACGGCCU | -1.94 ± 0.18 | -2.77 ± 0.2 |
| CACUAGCAAUAUUACGGGUA | -0.188 ± 0.064 | -0.856 ± 0.057 |
| CACUAGCAAUAUUACGGUUA | -0.466 ± 0.1 | -1.99 ± 0.12 |
| CACUAGCAAUAUUACGUCGG | 0.0907 ± 0.1 | -1.25 ± 0.082 |
| CACUAGCAAUAUUACGUGGU | -2.88 ± 0.17 | -3.41 ± 0.15 |
| CACUAGCAAUAUUACGUUAU | -3.52 ± 0.23 | -3.42 ± 0.22 |
| CAGAAGCAAUAUUACGAGAU | -2.44 ± 0.23 | -3.23 ± 0.17 |
| CAGAAGCAAUAUUACGAGGG | -1.18 ± 0.31 | -2.99 ± 0.23 |
